Experimental data: the supplement of paper PMC9170038

Tests used:
MS2 coat protein = experiment: apparent KD of MS2 coat protein; higher = weaker reporter binding; settings: Eterna round: R107
Protocol: (§1)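 RNA-MaP round R107: designed RNA switches with theophylline, tryptophan, arginine or FMN aptamers are transcribed on-chip within common flanks. They are titrated with SNAP-549-labelled MS2 coat protein in RNA-MaP buffer (100 mM Tris pH 7.5, 80 mM KCl, 4 mM MgCl2), without ligand or with the indicated ligand. Median apparent KD per design.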

[1] = tested on: K4 kissing-loop RNA reporter; experiment: apparent KD of K4 kissing-loop reporter; higher = weaker reporter binding; settings: Eterna round: R107;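 further: bound reporter read as fluorescence of individual clusters on recovered sequencing chips by microscopy, with normalized cluster intensities fitted with a binding model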
Protocol: as §1, with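 “a labelled K4 kissing-loop RNA reporter” for “SNAP-549-labelled MS2 coat protein”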

[2] = input ligand: theophylline 20 uM
[3] = input ligand: tryptophan 2.4 mM
[4] = input ligand: theophylline 2 mM

Sequence | apparent KD of MS2 coat protein (MS2 coat protein; input ligand: arginine 13.2 mM) [nM] | apparent KD of MS2 coat protein (MS2 coat protein; [2]) [nM] | apparent KD of MS2 coat protein (MS2 coat protein; [3]) [nM] | apparent KD of MS2 coat protein (MS2 coat protein; input ligand: none) [nM] | apparent KD of MS2 coat protein (MS2 coat protein; [4]) [nM] | apparent KD of K4 kissing-loop reporter ([1]; input ligand: FMN 200 uM) [nM] | apparent KD of K4 kissing-loop reporter ([1]; input ligand: arginine 13.2 mM) [nM] | apparent KD of K4 kissing-loop reporter ([1]; input ligand: none) [nM] | apparent KD of K4 kissing-loop reporter [1, 2] [nM] | apparent KD of K4 kissing-loop reporter [1, 3] [nM]
AGUACUCGAACGGAUACCAGCCGGACAUGAGGAUCACCCAUGUCCUACCAUGGUUCGGUUGGCCCUUGGCAGCCGUUCGUGUACA [Omei Theo B SS A v3] | 128 | 204 | 203 | – | – | – | – | – | – | –
UUAUGAUGUUCCGAUACCAGCCAUGUAGUUCUAACUUAACAUGAGGAUCACCCAUGUACCGGCCCUUGGCAGCGGAUGUGGAUUA [#22Same State - Theophylline B] | 27 | 29.3 | 23.7 | 23.4 | 14.8 | – | – | – | – | –
UCACAUGAGGAUCACCCAUGUACAGGCGAUACCAGCCGUACAUUGGGCCCUUGGCAGCGCACCGAGACCUUUAUAAGCACCUCGG [Zaoranorre] | 67 | 207 | 15.7 | – | – | – | – | – | – | –
UCGGGCAGAGCGGCCGCCACUGUUUGGCAUGCGGAUGAAGGAACAUGAGGAUCACCCAUGUAGAUUAGGACCGGGCUUGCGGAGA [rvcmullin] | 19.1 | 22.1 | 19.5 | 18.2 | 23.8 | – | – | – | – | –
CGCACAGAGAAUGAUACCAGCGAGGAAGCGACAUGAGGAUCACCCAUGUGCGAAUGAUCCCGCCCUUGGCAGCGUAAGUGAUCCC [ss-theoB-?] | 59.3 | 154 | 62.6 | – | – | – | – | – | – | –
ACGAUAGGACUUGAGGAACACCCAAGUGAUACCAGCCUGGAAACAGGCCCUUGGCAGCACUAAUACUCCAAUAACCUAUCGAAUA [TheoAX 15 #MicroSwitchBubble #AlternativeMS2] | 140 | 172 | 155 | 212 | 66.7 | – | – | – | – | –
AGAUGUAGCGGAAGGAGCGACAAGAGGAUCACCCUUGUCUCCCGUUGUGGGAGUUCCUUAGGUCAGGUAGGUCGCCGUUACGUCA [Omei Arg B SS B v4] | 22.7 | 38.4 | 25 | 22.9 | 28.6 | – | – | – | – | –
GGUUACUCUACGGCCGCCACUGUAAAGUAAAUAUUAAUGUACAUGACAUGAGGAUCACCCAUGUACAGGACCGGGUAGUGUAACC [Tryptophan B 14] | 45.5 | 56.5 | – | – | 46.5 | – | – | – | – | –
GCUGUAAGUGCAGAUACCAGCAGGUGAUAUUUCUAAUGACAUGAGGAUCACCCAUGUAACUGCCCUUGGCAGCUGCACUUACAGC [SSTHB #8] | 48.5 | 32.1 | 59.6 | – | – | – | – | – | – | –
GCACCAGGUACGGAUACCAGCUGCCCGAGAUACAUGAGGAUCACCCAUGUGACCUGAUUUAGCCCUUGGCAGCUGUACCUGGUGC [SSThB NP+V+V2 #1] | 148 | 189 | 285 | 333 | 55.9 | – | – | – | – | –
ACACAUGAGGAUCACCCAUGUGCAAUAGAUACCAGUGACGCGGUGCACCCUUGGCAGCUGUUGCUGAGUGAUGGUUCCCUCGGAA [Exclusion Theophylline A GF 6] | 17.9 | 57.6 | 42.1 | – | – | – | – | – | – | –
ACGAUAGGACCUGAGGAUCACCCAGGUGAUACCAGCCUGGAAACAGGCCCUUGGCAGCACCAAUACUCCAAUAACCUAUCGAAUA [TheoAX 11 #MicroSwitchBubble #AlternativeMS2] | 96.8 | 442 | 213 | 220 | 372 | – | – | – | – | –
GGUGGCUGGACUGAUACCAGCCACCACCGAUAGACCACAUGAGGAUCACCCAUGUUGGGUGGCCCUUGGCAGCAGUCCAGCUGCC [#1 Same State - Theophylline B Attempt #10 (HarryS)] | 152 | 374 | 873 | 607 | 2990 | – | – | – | – | –
CUAUUUAUAGCGGCCGCCACUUACUCAUGAGGUAACAACAUGAGGAUCACCCAUGUUUGAGGAUCAAGGACCGGGCUAUAGAUAG [AstrosSSTryB#11] | 36.7 | 20.3 | 15 | 27.5 | 24.3 | – | – | – | – | –
GCCAUCGGCGGAAGCCGAUGGUAUACGGAAGGAGCGCACGAAAGUGCAGGUAGGUCGCUGAACAUGAGGAUCACCCAUGUAAUAA [#28 Same State - Arginine A] | 17.6 | 36.4 | 20.3 | 18.8 | 24.1 | – | – | – | – | –
ACGAACUGUAGUGAUACCAGACACACAUGAGGAUCACCCAUGUUGUUAGCAUGGUGAAUAGUCCCUUGGCAGCACAGUUAGUUCG [#12 Exclusion-TheophyllineB] | 71.5 | 111 | 94.3 | – | – | – | – | – | – | –
CACGAAAGAUCGGCCGCCACUAUUUGAUGUGUUCUUUCACAUGAGGAUCACCCAUGUUCUUUCUUUAGGACCGGGAUUGAGCGUG [ETB #1] | 88.8 | 126 | – | – | 162 | – | – | – | – | –
CGGUUGCCACAUGAGGAUCACCCAUGUGAAGGAGCGGCGAAUAAGCCAGGUAGGUCGCGCAUGAAUAAAUCAUGUUGGUGCCGAA [XArg-A 17 V2] | 25.6 | 65.1 | 33.4 | 39.7 | 68.5 | – | – | – | – | –
ACGCGCUGGGCGGCCGCCACUCACCUGCCGUGGACAUUUCGAGGUCACAUGAGGAUCACCCAUGUGAGGACCGGGCCCUGUAGGC [theeternabot_exclusion_MS2_Trp_B_37] | 12.3 | 17 | – | – | 12.7 | – | – | – | – | –

Sequence | apparent KD of MS2 coat protein (MS2 coat protein; input ligand: arginine 13.2 mM) [nM] | apparent KD of MS2 coat protein (MS2 coat protein; [2]) [nM] | apparent KD of MS2 coat protein (MS2 coat protein; [3]) [nM] | apparent KD of MS2 coat protein (MS2 coat protein; input ligand: none) [nM] | apparent KD of MS2 coat protein (MS2 coat protein; [4]) [nM] | apparent KD of K4 kissing-loop reporter ([1]; input ligand: FMN 200 uM) [nM] | apparent KD of K4 kissing-loop reporter ([1]; input ligand: arginine 13.2 mM) [nM] | apparent KD of K4 kissing-loop reporter ([1]; input ligand: none) [nM] | apparent KD of K4 kissing-loop reporter [1, 2] [nM] | apparent KD of K4 kissing-loop reporter [1, 3] [nM]
GGGCGCGUGGACCGGCGUGCUCCGCUCCGUCGAGGACCGGUACGGCCGCCACUCGACAUGAGGAUCACCCAUGUGUGAGCUCGCG [#1 Exclusion - Tryptophan A Attempt #16 (HarryS)] | 22.5 | 63.6 | – | – | 80 | – | – | – | – | –
GGGUGGUAGGCGGCCGCCACUGAUUUUUAUAUAUAUAUGACAUGAGGAUCACCCAUGUAGAUAUGCAGGACCGGGCCUGUUGUUU [aaaN] | 22.4 | 28.2 | 28.3 | 22.2 | 22 | – | – | – | – | –
AACAUGAGGAUCACCCAUGUCUGAACUGAAGGAGCGCUAAAUAAGGCAGGUAGGUCGCGGAAUUUUAUAUAUAUAUAUAUAUGGG [9.E] | 13.7 | 39.9 | 20.5 | 25.6 | 34.6 | – | – | – | – | –
ACGAUACGACAUGAGGAUCACCCAUGUGAUACCAGCGUGGAAACACGCCCUUGGCAGCACAAAUACUCCAGAAACGUAUCGAAAA [MAT - Exclusion Theophlline A - Mod of Eli - D7] | 93.3 | 258 | 285 | – | – | – | – | – | – | –
CACGAAAGAUCGGCCGCCACUAUUUGAUGUGUUCUUUCACAUGAGGAUCACCCAUGUUCUUAUUUUAGGACCGGGAUUGAGCGUG [ETB #2] | 72.7 | 142 | – | – | 145 | – | – | – | – | –
GGUGGCGUGACGGAUACCAGCCACCGCCGCAAGGCAACAUGAGGAUCACCCAUGUUGGGUGGCCCUUGGCAGCUGUCGUGCGGCG [#1 Same State - Theophylline B Attempt #22 (HarryS)] | 13.3 | 151 | 50.2 | 195 | 159 | – | – | – | – | –
ACAUGAGGAUCACCCAUGUAACCUAGGGAAGGAGCGGUGUAAGAGCCAGGUAGGUCGCCCACAUGUGGAUCACCCAUGGUGAGGG [#24 Same State - Arginine A] | 22.7 | 44.4 | 26.6 | 29 | 39.2 | – | – | – | – | –
ACAUGAGGAUCACCCAUGUAAUCCUCUGAAGGAGCGAGAAAUAACUCAGGUAGGUCGCAGUUCAAAACAUGAGGAUCACCCAUGU [Exclusion Arginine A GF 9] | 28.9 | 52.6 | 51.1 | 43.3 | 46.2 | – | – | – | – | –
UGAUACCAGUCGGCCGCCACUACAUGAGGAUCACCCAUGUAUCCUCAACUGCUAGAUACUAGCAGUAGGACCGGGACUGGUAUCU | 164 | 408 | – | – | 459 | – | – | – | – | –
GGCCCUGCGAGCGCUCGCAGGGCCGCGGAUACCAGCGAGGUCCAUCGCCCUUGGCAGCCGAACAUGAGGAUCACCCAUGUCGGUA [#1 Same State - Theophylline A Attempt #13 (HarryS)] | 7.87 | 12.9 | 9.44 | 9.84 | 18.3 | – | – | – | – | –
AAAAUAAAUAAAACACGUAACAUGAAGGAUACCAGACAGGAAACUGUCCCUUGGCAGCCUCUACAUGAGGAUCACCCAUGUCGUG [Mat - Same State Theophlline A - Mod of Eli - D17] | 112 | 128 | 266 | – | – | – | – | – | – | –
CCCUCACGAGUGAUGUUCGUAGGGUACAGUCAGGAUAUCAUGCGGUUGAGAAGGGACAGAGAAGGCGGCGACGGGUUGCUUAUCU [Atenus] | – | – | – | – | – | 206 | 243 | 277 | 200 | 218
AAUUUAUUAACUGAUACCAGACUAAUUUUAUUUAUUAAGUCAAGUGAUGUUUGACUUUAUGUCCCUUGGCAGCAGAAUUAAUUAA [JR_SSTheophyB_Sub019] | – | – | – | – | – | 126 | 143 | 124 | 112 | 128
GCAUGAUAGUAAGGAUAUAGAUAAUCCUUAUAUAUAUCGAGUGAUGUUCGAUGUGCCAAGGUACAUCUAGAAGGUACUGUAAGGU [Same State FMN B GF 17] | – | – | – | – | – | 265 | 288 | 257 | 355 | 239
AAAACUAUCAGAAGGAGCGUGGAAUAUUCAUCUAUAUUUAAUACGAGUGAUGUUCGUAAUUCACAGGUAGGUCGCUGAUCAAUAA [JR_ExcArginiB_Sub007] | – | – | – | – | – | 214 | 251 | 233 | 273 | 171
GGAUAGGAUAGAGGAUAUGGUUUAUGCAGAAAUAACUUAUUGUGUAAAUCCAUAGGGAGUGAUGUUCCAGAAGGCUGUCCUAUCG [MatMod 15 - Jieux - Exclusion - FMN B] | – | – | – | – | – | 316 | 187 | 209 | 241 | 180
AGACUACCACACUGUCAAUAGACAGUGAACUAGGAUAUGCUGAUAAGCAGAAGGAGUGAUGUUCCGAGGUAGUCAAUAAAAUAAU [FmnAX 13 G66] | – | – | – | – | – | 281 | 246 | 287 | 334 | 289
CACUUACGUAGUGAUGUUACGAUCUCUGAUACCAGACAACUCUAAGUCCCUUGGCAGCAGUCAUUUUGCUUAGUAUUUACUCAAA [JR_ExcTheophyA_Sub016] | – | – | – | – | – | 679 | 650 | 791 | 605 | 512
